Common to all, as to assay: high-throughput RNA pulldown from lysate on Ni-NTA beads; HRP: 50 mM Tris pH 8, 150 mM NaCl, 1 mM beta-mercaptoethanol, 50 ug/ml BSA, 3 ug/ml yeast RNA, 0.5% heparin; ITC and FP: Tris pH 8, 200 mM KCl, 5% glycerol; MST: 50 mM Tris pH 8, 200 mM NaCl, 1 mM DTT, BSA, heparin, 0.05% Tween 20
Common to all, as to details: tags: N-terminal His-eGFP

Data set [1] has as its target T1, GFP-9S library array, motif 4 ND N98M;D124P (synthetic construct, N98M;D124P).
T1 chain: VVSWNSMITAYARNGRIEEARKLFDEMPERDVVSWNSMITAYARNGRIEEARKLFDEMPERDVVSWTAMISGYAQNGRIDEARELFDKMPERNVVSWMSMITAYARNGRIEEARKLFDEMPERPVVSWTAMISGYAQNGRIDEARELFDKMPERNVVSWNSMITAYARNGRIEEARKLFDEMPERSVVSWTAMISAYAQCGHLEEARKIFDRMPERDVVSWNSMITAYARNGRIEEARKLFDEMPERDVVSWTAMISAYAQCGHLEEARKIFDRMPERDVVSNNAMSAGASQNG

Data set [2] has as its target T2, GFP-9S library array, motif 4 ND N98T;D124M (synthetic construct, N98T;D124M).
T2 chain: T1 chain with M98T, P124M

For data set [3], the target named is T3, GFP-9S library array, motif 4 ND N98R;D124S (synthetic construct, N98R;D124S).
T3 chain: T1 chain with M98R, P124S

In data set [4] the target is T4, GFP-9S library array, motif 4 ND N98E;D124W (synthetic construct, N98E;D124W).
T4 chain: T1 chain with M98E, P124W

Data set [5] addresses T5, GFP-9S library array, motif 4 ND N98W;D124K (synthetic construct, N98W;D124K).
T5 chain: T1 chain with M98W, P124K

Positions count from the first letter of the chain named.

B1: IR-rpoA-A (ssRNA)
RNA: AUUAAACGUGA
Turning to B1, the Kd amounted to 264 nM in data set [1] (label: 5' IRDye 800CW); 162 nM in data set [2] (label: 5' IRDye 800CW); 184 nM in data set [3] (label: 5' IRDye 800CW); 630 nM in data set [4] (label: 5' IRDye 800CW); 177 nM in data set [5] (label: 5' IRDye 800CW).

B2: IR-rpoA-U (ssRNA)
RNA: AUUAUACGUGA
In the case of B2, the dissociation constant Kd in data set [1] (label: 5' IRDye 800CW) was 296 nM; in data set [2] (label: 5' IRDye 800CW), 165 nM; in data set [3] (label: 5' IRDye 800CW) it was 88.9 nM; in data set [4] (label: 5' IRDye 800CW) it was 648 nM; in data set [5] (label: 5' IRDye 800CW), 154 nM.

B3: Cy5-rpoA (ssRNA)
RNA: AUUACACGUGA
Take B3: the equilibrium dissociation constant (Kd) in data set [1] (label: 5' Cy5) was 106 nM; in data set [2] (label: 5' Cy5), 101 nM; in data set [3] (label: 5' Cy5), 72.7 nM; in data set [4] (label: 5' Cy5), 213 nM; in data set [5] (label: 5' Cy5) it was 72.6 nM.

B4: Cy5-rpoA-G (ssRNA)
RNA: AUUAGACGUGA
Take B4: the Kd is 115 nM in data set [1] (label: 5' Cy5); 107 nM in data set [2] (label: 5' Cy5); 93.6 nM in data set [3] (label: 5' Cy5); 198 nM in data set [4] (label: 5' Cy5); 48.1 nM in data set [5] (label: 5' Cy5).

Broadly, the Kd is the equilibrium constant for the complex coming apart.
